The text below walks through data of patent CN112239498A.

The target in test [1] is 1aE2C、1bE2C、2aE2C、3aE2C、4aE2C、5aE2C、6aE2C. Briefly: ELISA, coated E2C of seven subtypes. In general terms: An ELISA detects its analyte on a solid surface through an enzyme-linked reagent.
Test [2] concerns the target 1bE2C (Hepatitis C virus, subtype 1b). Briefly: ELISA, coated 1bE2C, anti-human IgG-HRP detection.

B1: 抗体HNC-5 (antibody, V domains shown)
VH: QVQLVQSGAEVKKPGSSVKVSCKVSGVTFKGYAISWVRQAPGQGLEWMGSVIPIFGAANYAQQFQGRVTITADESTSTAYMELRSLKFDDTAVYYCGRGDQLLWGITAFHYWGQGTLVTVSS
VL: EIVLTQSPGTLPLSPGEGATLSCRASHIVTSNNLAWYQQKPGQAPRLLIYGASNRATGIPDRFSGSGSGTDFTLTISRLEPEDFAMYYCQQYGSSPGTFGQGTKLEIK
For B1, the EC50 in test [1] is 0.00216 to 0.0226 µg/mL; in test [2], 0.016 µg/mL.

A word on the EC50: it is the concentration that produces a half-maximal response. A lower EC50 goes with an effect from little substance.
